The term Kd denotes a measure of binding affinity in units of concentration. Low values mean a tighter complex, high ones a looser complex.

Assay in all cases: SPR
A general note: SPR reads the build-up and loss of mass on a sensor chip optically.

The target in assay [1] is D^d MHC class I monomer presenting […] (mouse | ).
For assay [2], the target named is T1, K^d MHC class I monomer presenting VYLKTNVFL (mouse | ).
T1 chain 1: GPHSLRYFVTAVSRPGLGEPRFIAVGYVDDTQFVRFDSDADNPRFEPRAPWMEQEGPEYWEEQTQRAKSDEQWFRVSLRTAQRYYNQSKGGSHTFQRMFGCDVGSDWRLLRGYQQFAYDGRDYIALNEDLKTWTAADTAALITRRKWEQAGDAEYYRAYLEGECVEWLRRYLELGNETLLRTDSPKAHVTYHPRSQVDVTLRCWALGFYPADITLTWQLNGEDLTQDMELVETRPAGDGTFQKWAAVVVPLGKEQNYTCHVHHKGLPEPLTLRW
T1 chain 2: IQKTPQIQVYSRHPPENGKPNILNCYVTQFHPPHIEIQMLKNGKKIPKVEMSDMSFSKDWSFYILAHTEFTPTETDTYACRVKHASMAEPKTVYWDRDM
T1 chain 3: VYLKTNVFL

Assay [3] has as its target T2, K^b MHC class I monomer presenting SIINFEKL (mouse | ).
T2 chain 1: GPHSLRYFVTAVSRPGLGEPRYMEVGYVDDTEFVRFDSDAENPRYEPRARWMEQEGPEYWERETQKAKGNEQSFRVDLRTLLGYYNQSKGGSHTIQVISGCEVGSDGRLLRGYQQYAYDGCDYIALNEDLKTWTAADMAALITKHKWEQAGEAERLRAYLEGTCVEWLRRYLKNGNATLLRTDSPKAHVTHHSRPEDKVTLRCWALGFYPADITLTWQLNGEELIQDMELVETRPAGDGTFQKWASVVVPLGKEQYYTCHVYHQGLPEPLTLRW
T2 chain 2: T1 chain 2
T2 chain 3: SIINFEKL

B1: 34-1-2S antibody (antibody, V domains shown)
VH: EVQLQQSGAEFVRPGASVKLSCTASGFNLKDDYMFWVKQRPEQGLEWIGWIAPDNGDTEYASKFQGKATITADTSSNTAYVQLSSLTSEDTAVYYCTTWGYYSYVNYWGQGTTLTVSS
VL: DIQMTQSPSSLSASLGERVSLTCRASQDIGSNLNWLQQEPDGTIKRLIYATYSLDSGVPKRFSGSRSGSDYSLTISSLESEDFVDYYCLQYASSPYTFGGGTKLEIK
For the molecule B1, the results for the dissociation constant (Kd) in assay [1], in assay [2] and in assay [3] were 30 nM, 9.1 nM and 2490 nM, respectively.

Source of the values: doi:10.1101/2024.01.24.577129 (2024).
